For assay [1], the target named is T1, recombinant human BTN3A1-His (Sino Biological Cat. No. 15973-H08H) (human, UniProt O00481 30-254).
T1 construct: Bought protein; also called BTN3A1 His-tagged antigen; CD277; not shown: C-terminal His tag
In words: SPR Biacore single cycle kinetics; BTN3A1-His captured via anti-His, IgG analyte, bivalent analyte fit. The method, then:
(§1) All single cycle kinetic experiments were run at 25° C. with HBS-P+ running buffer (pH 7.4) containing 0.1% BSA (GE Healthcare, Little Chalfont, UK).
(§2) BTN3A1 His-tagged antigen (Sino Biological, Beijing, China) was diluted in running buffer to a final concentration of 0.4 μg/ml. At the start of each cycle, BTN3A1-His was captured onto Fc2 of CM5 sensor chip pre-coupled using a His capture kit (GE Healthcare, Little Chalfont, UK) with standard amine chemistry at a flow rate of 10 μl/min. An immobilization level (RL) of ~34 RU, 16 RU or 11 RU, the different theoretical values to obtain a RMax of ~50 RU was used for the analytes Fab, F(ab′) 2 and IgG respectively. The surface was then allowed to stabilize. Single cycle kinetic data was obtained with the purified samples (Fab, F(ab′)₂ and IgG) at a flow rate of 40 μl/min to minimize any potential mass transfer effects. The signal from the reference channel Fc1 (no antigen capture) was subtracted from that of Fc2 to correct for differences in non-specific binding to the reference surface. The signal for BTN3A1-His blank runs (no analyte) were subtracted to correct for differences in surface stability. The association phase for the five injections of increasing concentrations was monitored for 240 seconds each time and a single dissociation phase was measured for 1400 seconds following the last injection of analyte. Regeneration of the chip surface was conducted using two injections of 10 mM glycine-HCL pH 1.5 followed by a stabilization period of 240 seconds. Raw sensorgrams were fitted with a 1:1 model for Fab samples and with a bivalent analyte model for F(ab′)₂ and IgG samples in agreement with the different valences of the analytes. The kinetic constants were calculated for each variant (see Tables 10, 11 and 12).
A general note: Surface plasmon resonance follows binding to a sensor surface in real time, without labels.

Assay [2] addresses T1, recombinant human BTN3A1-His (Sino …). Nature of the assay: SPR Biacore single cycle kinetics; BTN3A1-His captured via anti-His, IgG analyte, bivalent analyte fit (Kd 1). The method, then:
as §1
as §2, with “The signal for BTN3A1-His blank runs (no analyte) were subtracted to correct for differences in surface stability.” left out, “Regeneration of the chip surface was conducted using two injections of 10 mM glycine-HCL pH 1.5 followed by a stabilization period of 240 seconds. Raw sensorgrams were fitted with a 1:1 model for Fab samples and with a bivalent analyte model for F(ab′)₂ and IgG samples in agreement with the different valences of the analytes.” left out

Assay [3] shares this target. In words: SPR Biacore single cycle kinetics; BTN3A1-His captured via anti-His, IgG analyte, bivalent analyte fit (Ka1). The procedure:
as §1
as §2, with “The signal for BTN3A1-His blank runs (no analyte) were subtracted to correct for differences in surface stability.” left out, “Regeneration of the chip surface was conducted using two injections of 10 mM glycine-HCL pH 1.5 followed by a stabilization period of 240 seconds. Raw sensorgrams were fitted with a 1:1 model for Fab samples and with a bivalent analyte model for F(ab′)₂ and IgG samples in agreement with the different valences of the analytes.” left out

Assay [4] has the same target. In words: SPR Biacore multi-cycle kinetics; antibody captured on Protein A, BTN3A1-His analyte, 1:1 fit.
In assay [5] the target is T2, BTN3A1-CFP on HEK293T BTN3KO cells (human, UniProt O00481 30-513).
T2 construct: Transient transfection of BTN3A knock-out HEK293T; also called HEK293T BTN3KO + 3A1-CFP; not shown: CFP fusion partner
T2 sequence (O00481 30-513): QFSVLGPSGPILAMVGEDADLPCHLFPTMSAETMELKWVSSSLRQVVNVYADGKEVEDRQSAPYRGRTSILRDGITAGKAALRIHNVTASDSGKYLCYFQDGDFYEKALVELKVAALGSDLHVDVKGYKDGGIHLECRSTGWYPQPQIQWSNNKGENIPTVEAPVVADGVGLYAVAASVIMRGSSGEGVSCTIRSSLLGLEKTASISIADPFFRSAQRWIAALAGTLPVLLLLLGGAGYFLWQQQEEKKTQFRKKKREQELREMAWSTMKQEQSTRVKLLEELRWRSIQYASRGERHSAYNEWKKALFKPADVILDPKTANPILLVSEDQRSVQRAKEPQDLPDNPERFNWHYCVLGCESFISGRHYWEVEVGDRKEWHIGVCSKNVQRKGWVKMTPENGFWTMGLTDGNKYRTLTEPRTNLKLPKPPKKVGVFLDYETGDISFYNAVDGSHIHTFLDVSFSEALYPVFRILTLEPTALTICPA
Nature of the assay: flow cytometry on HEK293T BTN3KO transiently transfected with BTN3A1-CFP, gated CFP+ (n = 4). For orientation: Flow cytometry measures light scatter and fluorescence of single cells or particles in a stream.

Assay [6] has as its target T3, BTN3A2-CFP on HEK293T BTN3KO cells (human, UniProt P78410 30-334).
T3 construct: Transient transfection of BTN3A knock-out HEK293T; also called HEK293T BTN3KO + 3A2-CFP; not shown: CFP fusion partner
In words: flow cytometry on HEK293T BTN3KO transiently transfected with BTN3A2-CFP, gated CFP+ (n = 5).

Assay [7] addresses T4, BTN3A3-CFP on HEK293T BTN3KO cells (human, UniProt O00478 30-584).
T4 construct: Transient transfection of BTN3A knock-out HEK293T; also called HEK293T BTN3KO + 3A3-CFP; not shown: CFP fusion partner
Nature of the assay: flow cytometry on HEK293T BTN3KO transiently transfected with BTN3A3-CFP, gated CFP+ (n = 5).

In assay [8] the target is T1, recombinant human BTN3A1-His (Sino …). In words: SPR Biacore single cycle kinetics; BTN3A1-His captured via anti-His, F(ab′)2 analyte, bivalent analyte fit. The method, then:
as §1
as §2, with “The signal for BTN3A1-His blank runs (no analyte) were subtracted to correct for differences in surface stability.” left out, “Regeneration of the chip surface was conducted using two injections of 10 mM glycine-HCL pH 1.5 followed by a stabilization period of 240 seconds. Raw sensorgrams were fitted with a 1:1 model for Fab samples and with a bivalent analyte model for F(ab′)₂ and IgG samples in agreement with the different valences of the analytes.” left out

T1 sequence (O00481 30-254 limits assumed): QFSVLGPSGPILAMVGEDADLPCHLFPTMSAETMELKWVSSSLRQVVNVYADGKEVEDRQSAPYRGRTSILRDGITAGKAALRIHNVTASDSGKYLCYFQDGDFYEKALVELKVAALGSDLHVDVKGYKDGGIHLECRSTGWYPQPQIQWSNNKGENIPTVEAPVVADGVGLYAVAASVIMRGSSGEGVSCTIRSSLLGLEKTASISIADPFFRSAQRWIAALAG
T3 sequence (P78410 30-334): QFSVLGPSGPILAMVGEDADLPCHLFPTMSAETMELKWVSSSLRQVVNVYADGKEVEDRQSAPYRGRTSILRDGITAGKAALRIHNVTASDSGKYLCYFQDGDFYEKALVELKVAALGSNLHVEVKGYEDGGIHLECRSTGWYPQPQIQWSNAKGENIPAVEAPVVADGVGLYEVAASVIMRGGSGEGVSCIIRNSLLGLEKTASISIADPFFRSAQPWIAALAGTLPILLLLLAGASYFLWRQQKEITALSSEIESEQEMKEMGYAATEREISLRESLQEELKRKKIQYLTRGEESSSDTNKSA
T4 sequence (O00478 30-584): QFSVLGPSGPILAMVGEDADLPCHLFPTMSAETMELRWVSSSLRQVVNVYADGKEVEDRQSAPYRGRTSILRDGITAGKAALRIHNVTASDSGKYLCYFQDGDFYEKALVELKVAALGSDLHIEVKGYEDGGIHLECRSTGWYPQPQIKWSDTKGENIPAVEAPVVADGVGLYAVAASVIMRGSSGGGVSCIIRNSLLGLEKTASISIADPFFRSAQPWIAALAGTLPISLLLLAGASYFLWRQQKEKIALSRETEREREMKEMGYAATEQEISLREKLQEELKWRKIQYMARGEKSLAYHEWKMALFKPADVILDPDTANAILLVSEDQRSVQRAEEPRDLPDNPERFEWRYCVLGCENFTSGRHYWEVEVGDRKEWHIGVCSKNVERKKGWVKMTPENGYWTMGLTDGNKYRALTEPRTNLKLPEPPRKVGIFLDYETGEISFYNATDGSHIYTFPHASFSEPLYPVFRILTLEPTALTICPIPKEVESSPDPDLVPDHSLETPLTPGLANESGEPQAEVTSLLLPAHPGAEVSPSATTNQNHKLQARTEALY

B1: mAb3 (antibody, V domains shown)
VH: QVQLVQSGAEVKKPGASVKVSCKASGYTFNGYYIHWVRQAPGQGLEWMGWINSNSGGTKYAQKFQGRVTMTRDTSISTAYMELSRLRSDDTAVYYCARRHSDMIGYYYGMDVWGQGTTVTVSS
VL: DIQMTQSPSSVSASVGDRVTITCRASQGISSWLAWYQQKPGKAPKLLIYAASSLQSGVPSRFSGSGSGTDFTLTISSLQPEDFATYYCQQATDFPPTFGGGTKVEIKR
Regarding B1, in assay [1], the “Kd 2” value was found to be 8.6e-05 s⁻¹. The koff (as a rule, the first-order rate constant of dissociation) in assay [2] turned out to be 0.00379 s⁻¹. The kon (commonly a measure of how fast the partners come together) in assay [3] was determined as 56300 M⁻¹ s⁻¹.

B2: mAb6 (antibody, V domains shown)
VH: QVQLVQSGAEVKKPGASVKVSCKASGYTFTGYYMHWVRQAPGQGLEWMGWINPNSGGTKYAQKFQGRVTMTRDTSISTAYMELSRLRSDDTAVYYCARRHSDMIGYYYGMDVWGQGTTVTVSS
VL: DIQMTQSPSSLSASVGDRVTITCRASQSISLFLNWYQQKPGKAPKLLIYTASSLQSGVPSRFSGSGSGTDFTLTISSLQPEDFATYYCQQANSFPPTFGGGTKVDIKR
Turning to B2, in assay [4], the Kd (commonly the constant that tells how readily two partners part at equilibrium) is 0.319 nM.

B3: mAb1 (antibody, human IgG1, kappa)
heavy: QVQLVQSGAEVKKPGASVKLSCKASGYIFTRYYMYWVKQRPGQGLEWIGEINPNNGGTKFNEKFKNRATLTVDKSISTAYMELSRLRSDDTAVYYCSREDDYDGTPFAMDYWGQGTLVTVSSASTKGPSVFPLAPSSKSTSGGTAALGCLVKDYFPEPVTVSWNSGALTSGVHTFPAVLQSSGLYSLSSVVTVPSSSLGTQTYICNVNHKPSNTKVDKRVEPKSCDKTHTCPPCPAPEFEGGPSVFLFPPKPKDTLMISRTPEVTCVVVDVSHEDPEVKFNWYVDGVEVHNAKTKPREEQYNSTYRVVSVLTVLHQDWLNGKEYKCKVSNKALPASIEKTISKAKGQPREPQVYTLPPSREEMTKNQVSLTCLVKGFYPSDIAVEWESNGQPENNYKTTPPVLDSDGSFFLYSKLTVDKSRWQQGNVFSCSVMHEALHNHYTQKSLSLSPG
light: not shown
notes: Humanized 7.2 (VH2/Vk1), silent IgG1 L247F/L248E/P350S, kappa; also called 7.2 VH2/VK1 IgG1; IgG1 7.2 VH2/VK1
Regarding B3, the “Kd 2” value in assay [1] worked out at 44 s⁻¹. Also, the EC50 (in general, the concentration at which the effect is half-maximal) in assay [5] is 2.4 µg/mL; in assay [6] it was 1.88 µg/mL; in assay [7], 1.75 µg/mL.

B4: mAb2 (antibody, human IgG1, kappa)
heavy: QVQLVQSGAEVKKPGASVKLSCKASGYIFTRYYMYWVKQRPGQGLEWIGEINPNNGGTKFNEKFKNRATLTVDKSISTAYMELSRLRSDDTAVYYCSREDDYDGTPFAMDYWGQGTLVTVSSASTKGPSVFPLAPSSKSTSGGTAALGCLVKDYFPEPVTVSWNSGALTSGVHTFPAVLQSSGLYSLSSVVTVPSSSLGTQTYICNVNHKPSNTKVDKRVEPKSCDKTHTCPPCPAPEFEGGPSVFLFPPKPKDTLMISRTPEVTCVVVDVSHEDPEVKFNWYVDGVEVHNAKTKPREEQYNSTYRVVSVLTVLHQDWLNGKEYKCKVSNKALPASIEKTISKAKGQPREPQVYTLPPSREEMTKNQVSLTCLVKGFYPSDIAVEWESNGQPENNYKTTPPVLDSDGSFFLYSKLTVDKSRWQQGNVFSCSVMHEALHNHYTQKSLSLSPG
light: not shown
notes: Humanized 7.2 (VH2/Vk2), silent IgG1 L247F/L248E/P350S, kappa; also called 7.2 VH2/VK2 IgG1; IgG1 7.2 VH2/VK2
In the case of B4, in assay [1], the “Kd 2” value was determined as 0.0241 s⁻¹.

B5: Chimeric 7.2 (VH0/Vκ0) (antibody, V domains shown)
VH: QVQLQQSGAELVKPGASVKLSCKASGYIFTRYYMYWVKQRPGQGLEWIGEINPNNGGTKFNEKFKNKATLTVDKFSSTAYMQLRSLTSEDSAVYYCSREDDYDGTPFAMDYWGQGTSVTVSS
VL: DIQMNQSPSSLSASLGDTITITCHASQNINVWLSWYQQKPGNIPKLLIYKASNLHTGVPSRFTGSGSGTGFTLTISSLQPEDIATYYCQQGQTYPYTFGGGTKLEIK
notes: not used; also called 7.2 VH0/Vk0; chimeric 7.2 antibody
With B5, in assay [4], the Kd stood at 0.176 nM.

B6: 7.2 VH2/VK1 F(ab′)2 (other)
heavy: QVQLVQSGAEVKKPGASVKLSCKASGYIFTRYYMYWVKQRPGQGLEWIGEINPNNGGTKFNEKFKNRATLTVDKSISTAYMELSRLRSDDTAVYYCSREDDYDGTPFAMDYWGQGTLVTVSS
light: not shown
notes: not shown: IgG4 CH1 and hinge up to the pepsin cleavage site
On to B6, for which the “Kd 2” value in assay [8] was 32.4 s⁻¹.

B7: 7.2 VH2/VK2 F(ab′)2 (other)
heavy: QVQLVQSGAEVKKPGASVKLSCKASGYIFTRYYMYWVKQRPGQGLEWIGEINPNNGGTKFNEKFKNRATLTVDKSISTAYMELSRLRSDDTAVYYCSREDDYDGTPFAMDYWGQGTLVTVSS
light: not shown
notes: as for B6
As to B7, in assay [8], the “Kd 2” value worked out at 54.6 s⁻¹.

The values above are taken from patent US20260242483A1 (IMCHECK THERAPEUTICS, published 2026).
